Key:
[1] = carboxylate reductase enzyme activity assay (adipate semialdehyde to hexanedial); type: biochemical; conditions: purified enzyme enhanced by sfp gene product; 2 mM adipate semialdehyde; room temperature, 20 min; against empty vector control (FIG. 15)
Protocol: The N-terminal His-tagged carboxylate reductase of SEQ ID NO 6 (see Example 2, Example 3 and FIG. 9) was assayed using adipate semialdehyde as substrate. The enzyme activity assay was performed in triplicate in a buffer composed of a final concentration of 50 mM HEPES buffer (pH=7.5), 2 mM adipate semialdehyde, 10 mM MgCl2, 1 mM ATP and 1 mM NADPH. The enzyme activity assay reaction was initiated by adding purified carboxylate reductase and phosphopantetheine transferase or the empty vector control to the assay buffer containing the adipate semialdehyde and then incubated at room temperature for 20 min. The consumption of NADPH was monitored by absorbance at 340 nm.

[2] = carboxylate reductase enzyme activity assay (adipate to adipate semialdehyde); type: biochemical; conditions: purified enzyme enhanced by sfp gene product; 2 mM adipate; room temperature, 20 min; against empty vector control (FIG. 12)
Protocol: A sequence encoding a HIS-tag was added to the genes from Segniliparus rugosus and Segniliparus rotundus that encode the carboxylate reductases of SEQ ID NOs: 4 and 6, respectively (see FIG. 9), such that N-terminal HIS tagged carboxylate reductases could be produced. Each of the modified genes was cloned into a pET Duet expression vector along with a sfp gene encoding a HIS-tagged phosphopantetheine transferase from Bacillus subtilis, both under the T7 promoter. Each expression vector was transformed into a BL21[DE3] E. coli host and the resulting recombinant E. coli strains were cultivated at 37° C. in a 250 mL shake flask culture containing 50 mL LB media and antibiotic selection pressure, with shaking at 230 rpm. Each culture was induced overnight at 37° C. using an auto-induction media.
The pellet from each induced shake flask culture was harvested via centrifugation. Each pellet was resuspended and lysed via sonication, and the cell debris was separated from the supernatant via centrifugation. […]
Enzyme activity assays (i.e., from adipate to adipate semialdehyde) were performed in triplicate in a buffer composed of a final concentration of 50 mM HEPES buffer (pH=7.5), 2 mM adipate, 10 mM MgCl2, 1 mM ATP and 1 mM NADPH. […] The consumption of NADPH was monitored by absorbance at 340 nm.

B1: SEQ ID NO 6: Segniliparus rotundus carboxylate reductase (Genbank Accession No. ADG98140.1) (protein, listed as Segniliparus rotundus)
chain: MTQSHTQGPQASAAHSRLARRAAELLATDPQAAATLPDPEVVRQATRPGLRLAERVDAILSGYADRPALGQRSFQTVKDPITGRSSVELLPTFDTITYRELRERATAIASDLAHHPQAPAKPGDFLASIGFISVDYVAIDIAGVFAGLTAVPLQTGATLATLTAITAETAPTLFAASIEHLPTAVDAVLATPSVRRLLVFDYRAGSDEDREAVEAAKRKIADAGSSVLVDVLDEVIARGKSAPKAPLPPATDAGDDSLSLLIYTSGSTGTPKGAMYPERNVAHFWGGVWAAAFDEDAAPPVPAINITFLPLSHVASRLSLMPTLARGGLMHFVAKSDLSTLFEDLKLARPTNLFLVPRVVEMLYQHYQSELDRRGVQDGTREAEAVKDDLRTGLLGGRILTAGFGSAPLSAELAGFIESLLQIHLVDGYGSTEAGPVWRDGYLVKPPVTDYKLIDVPELGYFSTDSPHPRGELAIKTQTILPGYYKRPETTAEVFDEDGFYLTGDVVAQIGPEQFAYVDRRKNVLKLSQGEFVTLAKLEAAYSSSPLVRQLFVYGSSERSYLLAVIVPTPDALKKFGVGEAAKAALGESLQKIARDEGLQSYEVPRDFIIETDPFTVENGLLSDARKSLRPKLKEHYGERLEAMYKELADGQANELRDIRRGVQQRPTLETVRRAAAAMLGASAAEIKPDAHFTDLGGDSLSALTFSNFLHDLFEVDVPVGVIVSAANTLGSVAEHIDAQLAGGRARPTFATVHGKGSTTIKASDLTLDKFIDEQTLEAAKHLPKPADPPRTVLLTGANGWLGRFLALEWLERLAPAGGKLITIVRGKDAAQAKARLDAAYESGDPKLAGHYQDLAATTLEVLAGDFSEPRLGLDEATWNRLADEVDFISHPGALVNHVLPYNQLFGPNVAGVAEIIKLAITTRIKPVTYLSTVAVAAGVEPSALDEDGDIRTVSAERSVDEGYANGYGNSKWGGEVLLREAHDRTGLPVRVFRSDMILAHQKYTGQVNATDQFTRLVQSLLATGLAPKSFYELDAQGNRQRAHYDGIPVDFTAESITTLGGDGLEGYRSYNVFNPHRDGVGLDEFVDWLIEAGHPITRIDDYDQWLSRFETSLRGLPESKRQASVLPLLHAFARPGPAVDGSPFRNTVFRTDVQKAKIGAEHDIPHLGKALVLKYADDIKQLGLL
carboxylate reductase activity: acceptance of adipate semialdehyde as substrate (consumption of NADPH, absorbance at 340 nm) [1]: accepted adipate semialdehyde as substrate | carboxylate reductase activity: acceptance of adipate as substrate (consumption of NADPH, absorbance at 340 nm) [2]: accepted adipate as substrate

Source: US9816117B2, “Methods, reagents and cells for biosynthesizing compounds” (INVISTA North America S.á r.l., priority 2014, dated 2017)
